Earlier results in article PMC6940912, “Novel Drug-Like Somatostatin Receptor 4 Agonists are Potential Analgesics for Neuropathic Pain” (International Journal of Molecular Sciences, 2019).

Experiments:
[1] = design: method as in PMID 30232095; conditions: native peptide ref 9; cited from earlier work
[2] = tested on: Male NMRI mice; design: method as in PMID 16697366, PMID 12122501; conditions: 10–100 µg/kg i.p. ref 15, 27; cited from earlier work

| Compound | Elimination half-life [1] | Analgesic effect in partial sciatic nerve ligation model [2] |
| --- | --- | --- |
| somatostatin: native peptide released from capsaicin-sensitive sensory nerve terminals | < 3 min |  |
| Cc1ccc(S(=O)(=O)N[C@@H](CCN)C(=O)N[C@@H](Cc2ccccc2)C(N)=O)c2ccccc12 [Compound J-2156] |  | potent and dose-dependent analgesic effects |
